Data taken from patent US6485936.

Columns and labels:
[1] = biological target: GST-HSF1N101 (human) (UniProt Q00613); assay: GST pull-down; 35S-labeled in vitro translated protein on GST-fusion glutathione-Sepharose, SDS-PAGE, autoradiography, BAS2000 quantification
[2] = biological target: GST-HSF2N96 (human) (UniProt Q03933); assay: as above
GST-HSF2N96 (human), sequence (Q03933 96-536): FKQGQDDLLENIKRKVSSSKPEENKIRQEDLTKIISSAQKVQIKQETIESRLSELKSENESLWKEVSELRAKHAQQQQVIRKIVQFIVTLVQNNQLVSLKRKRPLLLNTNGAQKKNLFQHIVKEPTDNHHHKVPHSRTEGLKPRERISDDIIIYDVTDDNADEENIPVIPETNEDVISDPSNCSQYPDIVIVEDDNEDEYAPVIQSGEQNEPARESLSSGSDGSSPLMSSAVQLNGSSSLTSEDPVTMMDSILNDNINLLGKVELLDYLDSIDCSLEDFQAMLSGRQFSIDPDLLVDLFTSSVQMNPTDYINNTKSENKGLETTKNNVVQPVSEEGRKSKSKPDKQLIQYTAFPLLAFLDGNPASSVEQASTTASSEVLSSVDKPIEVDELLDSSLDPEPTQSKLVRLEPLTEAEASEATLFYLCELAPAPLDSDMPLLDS

GST-HSF1N101 (human), sequence (Q00613 101-529): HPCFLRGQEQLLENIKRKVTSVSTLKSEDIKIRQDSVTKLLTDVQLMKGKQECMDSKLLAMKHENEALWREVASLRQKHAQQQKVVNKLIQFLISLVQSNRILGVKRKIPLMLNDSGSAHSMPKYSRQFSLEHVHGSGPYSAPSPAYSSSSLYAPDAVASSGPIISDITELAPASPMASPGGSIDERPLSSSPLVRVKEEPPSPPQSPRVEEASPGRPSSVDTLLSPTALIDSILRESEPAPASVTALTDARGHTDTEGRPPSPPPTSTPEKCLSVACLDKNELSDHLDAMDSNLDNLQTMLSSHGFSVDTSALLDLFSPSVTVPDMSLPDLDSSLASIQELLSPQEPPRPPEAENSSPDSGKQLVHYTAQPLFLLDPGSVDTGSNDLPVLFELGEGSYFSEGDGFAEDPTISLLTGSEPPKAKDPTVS

B1: HSF2 binding protein (HSF2BP), in vitro translated, 35S-methionine-labeled (protein)
chain: MGEAGAAEEACRHMGTKEEFVKVRKKDLERLTTEVMQIRDFLPRILNGEVLESFQKLKIVEKNLERKEQELEQLKMDCEHFKARLETVQADNIREKKEKLALRQQLNEAKQQLLQQAEYCTEMGAAACTLLWGVSSSEEVVKAILGGDKALKFFSITGQTMESFVKSLDGDVQELDSDESQFVFALAGIVTNVAAIACGREFLVNSSRVLLDTILQLLGDLKPGQCTKLKVLMLMSLYNVSINLKGLKYISESPGFIPLLWWLLSDPDAEVCLHVLRLVQSVVLEPEVFSKSASEFRSSLPLQRILAMSKSRNPRLQTAAQELLEDLRTLEHNV
modifications: 35S-methionine label
[1]
  proportion of bound HSF2BP (% of the level of input) (% of the level of input): 8.5
[2]
  proportion of bound HSF2BP (% of the level of input) (% of the level of input): 7.9
